Measured values from a protein production outcome set (Wang et al. 2014).

Experiment: label from the status in PepcDB records

MRRYRTCDNPPPSNGGRACGGPDSQIQRCNTDMCPVDGSWGSWHSWSQCSASCGGGEKTRKRLCDHPVPVKGGRPCPGDTTQVTRCNVQACPGGPQRARGSVIGNINDVEFGIAFLNATITDSPNSDTRIIRAKITNVPRSLGSAMRKIVSILNPIYWTTAKEIGEAVNGFTLTNAVFKRETQVEFATGEILQMSHIARGLDSDGSLLLDIVVSGYVLQLQSPAEVTVKDYTEDYIQTGPGQLYAYSTRLFTIDGISIPYTWNHTVFYDQAQGRMPFLVETLHASSVESDYNQIEETLGFKIHASISKGDRSNQCPSGFTLDSVGPFCADEDECAAGNPCSHSCHNAMGTYYCSCPKGLTIAADGRTCQDIDECALGRHTCHAGQDCDNTIGSYRCVVRCGSGFRRTSDGLSCQDINECQESSPCHQRCFNAIGSFHCGCEPGYQLKGRKCMDVNECRQNVCRPDQHCKNTRGGYKCIDLCPNGMTKAENGTCIDIDECKDGTHQCRYNQICENTRGSYRCVCPRGYRSQGVGRPCMDIDECENTDACQHECKNTFGSYQCICPPGYQLTHNGKTCQDIDECLEQNVHCGPNRMCFNMRGSYQCIDTPCPPNYQRDPVSGFCLKNCPPNDLECALSPYALEYKLVSLPFGIATNQDLIRLVAYTQDGVMHPRTTFLMVDEEQTVPFALRDENLKGVVYTTRPLREAETYRMRVRASSYSANGTIEYQTTFIVYIAVSAYPY
protein production: failed

MNENDKEYQASLKSLETENIIDRKFYRPIGFYFAKLLSRTRVTPNMVTILSIFVGLGGGLCFVHTPYDLRWAVAGILCMVVANIMDCIDGQLARLTGIKSEIGRILDGIAGDIWFACIYICFIIRLTAEYPDALGSMTTGILIAVGLLSGISHLVQAAVTDYYKTLHLFFISPEKGKEFERSTSIRRRVKAMPHGVNRLFSSLYYYYTLIQERATPRLQRLLDQLEADYPQNTIPETLRQHLRKDSRRIMNIVDFLTFNGRTIPLFLIVLSGHIWLYFVFEILILNTVLVLGIRRHEAMCRHHLKERR
protein production: failed

NQPAYKDSSLSPEERAEDLLQQLTLEEKVALMMDNSKPVERLGIKPYNWWNEALHGVARSGLATVFPQPIGMAASFEPDAIHTIYTAVSDEARAKNAAYSAAGSYERYQGLTMWTPTVNIYRDPRWGRGIETYGEDPYLTSVMGVNVVKGLQCMDANQKYDKIHACAKHFAVHSGPEWNRHEFNAENIKPRDLHETYLVPFEALVKEAKVKEVMCAYNRLEGDPCCGSDRLLMQILRQDWGYDGIVLSDCGAIDDFYREKGHKTHPDAESASAAAVLSGTDLECGSSYKALVESAKKGLISEKDIDVSVKRLLKARFELGEMDDP
protein production: failed

MKREIQVSVFLTFITLAYYLLNSLALEFLGLGFISIPLTILLPASILFERERPNPISRVTYIFSMLWLVFLIYLLTGWALVQFIWFFLDLPCLKILAVSLAALSVSYGVFRARKIEVKRVEIPFPVEESLRFVQLSDIHLGTVRSAGFLKEVSEAVRRVEAAAVLITGDLLDGSRPVDSSIISSLETGAPIFFVSGNHDTYSGDFRSTVSDAGIMCIDQSVIEFEGIQIIGVGYSMERHSLPAILDLLEFDEDRPVLLLHHLPVDWEDARERGVDLQLSGHTHGGQFYPFNIIVGLMFPFLRGLYSDSGGFLYVSEGTGTWGPPVRLGSSCEITVIDLVPFKEI
protein production: failed

MDRATEPVLFFFMAFFWALNYVMVKFAYAYDLSSSILLMRVLYASIFSSLIFIRQIKLPKSPLEHLKVFILANLNITGFFSLWFFGETGVSAAVTSIVIYSYPILATAFSYLFLGDRFGAMKTLGLILGFAGLVIIFIRSINVENLVDLIMLLVAAISWAIGTVFYRKYLLGYDSAGLNTLQLLYALPVVLLISLFTGGINIGLLQLKFNLIMIYMGSFGTAIAYFIYLYLYRKYKVSSISAYFFLVPAISVVLAAVLLKEPISALTIAGFAVMSAGIFLSGSFK
protein production: failed

MDTLQFQKNPETAAKMSAYMKHQFVFAGIPAPERQALSKQLLKESHTWPKEKLCQEIEAYYQKTEREYQYVAIDLALQNVQRFSLEEVVAFKAYVPQKAWWDSVDAWRKFFGSWVALHLTELPTIFALFYGAENFWNRRVALNLQLMLKEKTNQDLLKKAIIYDRTTEEFFIQKAIGWSLRQYSKTNPQWVEELMKELVLSPLAQREGSKYLAKASE
protein production: not failed

MSLHASAIESIETIIVDLPTIRPHKLAMHTMQNQTLVLIRLRCADGIEGLGESTTIGGLAYGNESPDSIKTNIDRFVAPLLIGQDASNINAAMLRLEQSIRGNTFAKSGIESALLDAQGKRLGLPVSELLGGRVRDALPVAWTLASGDTAKDIAEAQKMLDLRRHRIFKLKIGAGEVDRDLAHVIAIKKALGDSASVRVDVNQAWDEAVALRACRILGGNGIDLIEQPISRNNRAGMVRLNASSPAPIMADESIECVEDAFNLAREGAASVFALKIAKNGGPRATLRTAAIAEAAGIGLYGGTMLEGGIGTLASAHAFLTLNKLSWDTELFGPLLLTEDILAEPPVYRDFHLHVSKAPGLGLSLDEERLAFFRRDKTTPVLHHTEGHHHHHH
protein production: not failed

LNSSYVNGNTAGNLYNAGLFCESDGEVFFSNTNDNGRLYAMNIDGSNIHKLSNDTAMYINADKNYVYYVRNNNQKITSQTFFSYDRNSLCRIKRNGHGSTVLDPDPCIYASLIGNYIYYLHYDTQTATSLYRIRIDGEEKKKIKNHYLFTCNTSDRYFYYNNPKNGQLYRYDTASQSEALFYDCNCYKPVVLDDTNVYYMDVNRDNAIVHVNINNPNPVVLTEANIEHYNVYGSLIFYQRGGDNPALCVVKNDGTGFKELAKGEFCNINVTSQYVYFTDFVSNKEYCTSTQNPDTIKALQP
protein production: not failed

MKIKACIFDMDGTLVNSIMDIAFSMNSALSNLGYSKIELSKFNALVGRGFNKFVIDTLKLLSLEHDNPNLQEKLYKEFVKEYNKNLSFQTKPYENIKPLLETMNKLNIPIGILSNKNHEELINLVKNIFGNILFFEIRGYSKNFPPKPDPENALDMILELNAQKEEIAYIGDSDVDMLTALNAGFMPIGVSWGFRSVQELKESGAKHIIHNPLELLDLIK
protein production: failed

MSLDKAIKEVRGNGKLKVAVFSDPDCPFCKRLEHEFEKMTDVTVYSFMMPIAGLHPDAARKAQILWCQPDRAKAWTDWMRKGKFPVGGSICDNPVAETTSLGEQFGFNGTPTLVFPNGRTQSGYSPMPQLEEIIRKNQQEGHHHHHH
protein production: not failed

MPYINELRNHKFLIILVDLLCILAAYIAAFYIRYQGFPAKNWESFVSLLPWILLIGLFFISVYELYALDRKNTLWDILVKIFVAVTFMAFLTMAASYFFREFALPRSILFIASVFTIVLLATWKYVFLKLTRRNVVGKVLFIGDDDNTERMISKIKHPMLKGTSIKQVHPNIPMDKINHYMRHADYIILCTSIQKEKKSMIIYHAMECNKLVYVVPTLYELLLQRSSVTPLDDTMLMSVKPFGLTWDQAFIKRAFDVVTSAFTLICTSPLLPISCNFN
protein production: failed

MTRLRGTLSVCIDAFPAWTRPLALAFVVYALSFGMRMLEYPAWQNPEYMLDGEYLLATHDAYHWIAGAEGFEFGAGHPMSELVRLAAAFTGTTPAAVGFWLPPVMASLVAVGVFGWAAALGGVEAGVCAGVLASLAPGFLARTLLGYCDTDLVTLLFPLLMGLGPAFWMARFMFTPLQVARRLLARRTGTSDVVPDAVAVMMTSRGEADDDWHGGALSPRWLALLAGSGLVGSWGAEWHSLFPYLIRYDVVLLFGCICVFGRPGMRRALLVGGLAYALPMLVGAWGLLFALALGWGLHRADARFMAFVRGRALPVAGWCAVAVLLFDPDVFRMFLNSIAGYVKRSGDPSPGAGGDDPLVYPSVAQSIIEVQDLSLSEVLSYFHPWLWVALAGLGGFVPLLLARPAAFFLLPLGVLSFLSVKLGGRMVMFGAPVLALGFALPMVWGVQRVLRHDLRTGWVRLALSAVLLVIVATPFVDLLPAMTQGPIINKRHAEALRHIRTATPEDSMVWIWWDWGYSAHHFAHRRTIADGASHGGPSLYVPAAVFSTANPRFAWQLIRYTAERGGIPGSVFEGMGGAQAQELVHRLGIEKMTFADAPRQYLVVSYDMLRLGFWITNFGTWDFLSREGKGYAISSIPQQLSYSLDTGEVQVQGNTTGVLASTIDVFDEGQLERRDYIVRQGGSGNAIADYAARQRNIESRRNIHFLFNKVTGEKLVLDDRLYNTVMVQLLLCSPDDTRFAPYFKLIYDNVYARVYEVR
protein production: failed

MRFGPVALSAAKGALLAHSRKAPGWTLAKGTRLGDEDLALLAGLGVAEVVVARLDPGDVHEDEAAARVAAVLLGPGLTLGDAFTGRANLFAGGDGLLRLDAARFDRLNALCEGLTVATLPPFAKVAPRQMVATVKIIPFALPETVIAQAEALLAGAPALEVALFRPMRLALIQTHLPETAGKMLDKTASVTAGRMAALGGGLTVDRRCPHDTRALAACLSAVSAEKDVDLIAVAGASAIVDRGDVIPAAITRAGGRVDHLGMPVDPGNLILLGELAGRVVLGLPGCARSPAINGFDWVLDRLCAGLAVGGADLMAMGVGGLLKDTTARTQPRMAAVTHPSPAAPPRLGALVLAAGLSRRMGGVNKLLLDWRGKPLVAHAVDTVLAAGPAAVAVVIGHQGKAVRAALEGRAIALVENPDPGRGLGSSLKRGLAALPADLDGVIVCLGDMPGLTPRLLSRLIAAFAPLEGRAICLPTFGGRRGNPVLFAARFLPEMMEITGDIGARPVIAAHPDQTCEVAMDALAEGASVLMDVDTPEAAKALLSAGGLEHHHHHH
protein production: failed

MLTAQSEYVKKLRPLLPPEAFQADPKKLVILGLNLGIYVAGLTIARHLHQWPGQWLWLFLPMALLMGNSVTVFLFGSHDLMHGSVLKKRSKISYLISLLGLSLWWMPPSQWRSLHNQVHHNNTNSLRDPDRNYLHEQPKTWGKWIHHLFAPSGEVNTLWLIFGMGTAWGVHNFRNLISVLFFTGGNADFVPAAFTVKAQDRQRIWLELAAIGAVHLSILFYLQFQLIPIILGYFLPIFLGHAMGMFYIYTNHLACPMTDINDPLVNSVSLRMPKLFDCLHFNFSYHTEHHLFPDVNSDYYPLVQDLLQTHYPGQMNLLTAKEAWKMLLETPRHYQGETTLVGYNGGETIACPLPKNVPDLTETKVTASV
protein production: failed

MTKNNILNNKITKVILFRICFIIAITTALVCGLKLNIINDGFWHIKVGEYIIKNRVIPREDIFSWYGIENKLKWISHEWLFGVIAYLVYKIKGFTSVIIFSTIVNCSTALLVYKFALIRNKNKVVSLIIMWVYIFGDFYDITYRPVLISKLILLCSFILLEKKKYLFALIVLILGVNIHGGIYPLYLMIFAYYTIPFSYKYLIFSLITVLINPYGYNLYKYTYLSMKNIDINRYINEWCITPIYDYKVALIIICITVCICTVSKIKFKDFLFCGALIILAISAKRHVDVIYLFVLPVISLYFNSFYFDFFMKFVSRIKPEKLKSIIPKLNYITCGFLIVVMIVKSSLCIKQYFFDTHFHNFEYITNDSENPIKACNFINSHQEIKNSRTFNDYNSSPYIIFRGIKTFVDSRQDLFTYNFNKTNAFVDQIKALNNYDYMIYVFKKYNIKYAILRNDMPNTRLLRNTDLIYIIYEDRDYSIFQINRNKLKSSNQRGV
protein production: failed

MKIKAVGAYSAKQPLEPMDITRREPGPNDVKIEIAYCGVCHSDLHQVRSEWAGTVYPCVPGHEIVGRVVAVGDQVEKYAPGDLVGVGCIVDSCKHCEECEDGLENYCDHMTGTYNSPTPDEPGHTLGGYSQQIVVHERYVLRIRHPQEQLAAVAPLLCAGITTYSPLRHWQAGPGKKVGVVGIGGLGHMGIKLAHAMGAHVVAFTTSEAKREAAKALGADEVVNSRNADEMAAHLKSFDFILNTVAAPHNLDDFTTLLKRDGTMTLVGAPATPHKSPEVFNLIMKRRAIAGSMIGGIPETQEMLDFCAEHGIVADIEMIRADQINEAYERMLRGDVKYRFVIDNRTLTD
protein production: not failed

MDYLNYEEIQSLKNSLLHNIKHTYISRYMILTALYTGMRPGEIAVLTWSDIDFKNQTININKSYNHDKGRVDNYDSSEIDKSTKNTNSVRIIKVDKKFLDILSQLKQNDHEKIFIGKDGTIPTSNAVNKVWRKQLEKLNIDKPSFHFHSVRHTHVALLPFKGVPLYAISKRLGHANMSTTAKKYAYMLDELKQQVRLEHHHHHH
protein production: not failed

MASLCSARFLPSPSLDILSTKTKISSDSRSLGCSSSRVFAFSSVHRSSSRRNRNQLQVVSMAPEEEKLTRRNPLDFPIEWERPKPGRRPDIFPKFSPMKTPLPPPMPYDPPEEDEEEEEKKEEEEENPDQEEEEQPEKQQ
protein production: failed
